Results from the supplement of paper PMC9732359.
± gives the uncertainty stated by the source.

Assay: protein stability index of a GFP-peptide fusion (yeast GPS) (PSI 1-4); higher = more stable; sorted into four equal gates, so the index is relative within each strain
Settings: san1∆
In short: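 Peptides tiling yeast proteins in 17-residue segments were fused downstream of GFP, with Cherry expressed from the same plasmid. As a pooled library in yeast, mid-log cultures grown in leucine-free medium were sorted into four equal gates by GFP/Cherry fluorescence ratio. Gate plasmids were PCR-amplified and Illumina-sequenced, and barcodes linked reads to strains. Each peptide received a protein stability index equal to the sum of each gate's read frequency times its gate number.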

Sequence	protein stability index
ISELPPQIRQEIEQLDQ [YGL172W/NUP49]	2.65 ± 0.088
ISIKDNKLVMKSKFNKS [GAL11]	3.2 ± 0.047
ISKQKSKLDYIFKDKEK [SMC1]	2.89 ± 0.15
ISLEALNFYITNVPKAK [SIR3]	2.62 ± 0.053
ISMLVTQLQRGGTSDMN [CSI1]	2.5 ± 0.11
ISQKLTNVNVKIKDVQQ [SMC3]	2.27 ± 0.14
ISQVSSIHAIGSIKEDY [RPB7]	2.32 ± 0.084
ISSEKLLTLTNAANVPV [RPP1A]	2.93 ± 0.065
ISSLGYRSHIFATNEER [SWI3]	2.34 ± 0.055
ISSRTYGQRAVLKFAAH [RPS0B]	2.26 ± 0.09
ISTGGFMSNDGPTLEKY [SNU114]	2.31 ± 0.071
ISVSSRSDREYPLLIRM [SRP14]	1.94 ± 0.13
ISVTDTEVERAKSLLKL [COR1]	3.08 ± 0.053
ITDKTIKAFMDSTIGNS [IRR1]	3.4 ± 0.15
ITFLIEKAKEMIRLLGS [ECM29]	2.9 ± 0.11
ITKEVTQVNILKENNAI [YIL149C/MLP2]	2.87 ± 0.085
ITKLNKEIRAFDKLLNI [SRB4]	3.36 ± 0.077
ITLIDSASLHLNYGVYL [RET1]	2.83 ± 0.097
ITMPATNGKPDMAILER [ARP7]	3.06 ± 0.041
ITPSAMKLVPSIPPATI [RPB5]	2.35 ± 0.057
ITRFGLSKMRDSVLQLA [RPO31]	3.17 ± 0.08
ITYALSGYVRSRGESDD [RPS21B]	2.44 ± 0.092
IVACELILSGDTTANNG [YJL039C/NUP192]	2 ± 0.077
IVALSSEEINQYVTQIE [PRE6]	3.11 ± 0.037
IVGQKNLNRAFNGDQVI [DIS3]	2.76 ± 0.057

Sequence	protein stability index
IVLSKAASALDEKEKQL [SIR4]	3.04 ± 0.17
IVMQLRKCCNHPYLFEG [ISW2]	2.74 ± 0.069
IVRDLDRPGSKFHKREV [RPL3]	2.92 ± 0.3
IVSEDHIILDTISECNL [MED1]	3.2 ± 0.077
IVVATEHNPSAHTASVG [COR1]	2.27 ± 0.06
IWPAEDALRRGMLAMAS [MED4]	3.05 ± 0.075
IYAGYDDRYGYQLYTSN [PRE9]	1.86 ± 0.17
IYDFHKMENLMRLIKRV [YJL039C/NUP192]	2.3 ± 0.062
IYDKKDHKYVCTFSMEP [SRB8]	2.78 ± 0.06
IYEEVRAVLKSFLESVI [HHF1]	2.26 ± 0.15
IYFTVPNEFEIQLSTVN [RGR1]	1.88 ± 0.061
IYNELSYELIKEECQIE [CSN9]	2.73 ± 0.057
IYQTLIALNLDTTVNDC [SNF2]	2.25 ± 0.054
IYRGVLNDENSDDYDNE [SMC1]	3.21 ± 0.24
IYYDSYIHLAYSRSVDK [SSN2]	2.89 ± 0.11
KAASSTRIFQALPRKLR [POP1]	2.76 ± 0.12
KAEMPPEHLRKIINTHS [PRP8]	1.82 ± 0.12
KAFKICEAAVEISKKDF [SIR3]	2.79 ± 0.14
KAKVEEMNNIIAASRRH [RPL36A]	3.19 ± 0.068
KALDRHEFFIANHDDQD [SRP68]	2.89 ± 0.057
KALKTNINFASGVKNDI [CDC53]	2.83 ± 0.095
KATLELLKLIEPYVAYG [RPL7A]	3.3 ± 0.034
KCPGCLNITTVFSHAQT [RPS27A]	2.9 ± 0.045
KCPLLVEVDITLSPNVT [GRR1]	1.76 ± 0.088

Same assay, conditions: ubr1∆

Sequence	protein stability index
ILDLKEFDRRILKKSLM [RTT102]	3.22 ± 0.28
ILDNINHNGSALLIEVF [ITC1]	1.22 ± 0.07
